Here are results for two molecules from patent US20030153520A1 (published 2003).

Test [1] has as its target endogenous SNAP25 (rat brain extract; PC12 cells) (rat, UniProt P60881 1-206). The test is described as follows: co-immunoprecipitation with anti-SNAP25 from Triton X-100 extract of rat brain. The method, then:
FIG. 4A illustrates that TI-VAMP forms a complex with SNAP25 in Triton X100 extract of rat brain. Immunoprecipitation with anti-SNAP25 antibodies was performed from Triton X100 soluble extract of rat brain as described in the Materials and Methods section of example 1 and immunoprecipitated proteins were detected by western blot analysis with the indicated antibodies (synaptobrevin 2, Sb2: cellubrevin, Cb: U, unbound, B: bound to anti-SNAP25 immunobeads). The bound fraction corresponded to a 65-fold enrichment compared to unbound. The SNAP25 TI-VAMP complex seemed more abundant than the SNAP25 synaptobrevin 2 one but this may only reflect a lower expression level of TI-VAMP compared to synaptobrevin 2 in the adult brain.
Immunoprecipitation: Immunoprecipitation from rat brain was performed using a Triton X-100 soluble membrane fraction prepared as follows: two adult rat brains were homogenized, with a glass teflon homogenizer (9 strokes at 900 rpm) in 25 ml of 0.32M sucrose containing a protease inhibitor cocktail. All the steps were carried out at 4° C. After 10 min centrifugation at 800 g the supernatant was centrifuged at 184000 g for 1 hour, obtaining a cytosolic and a membrane fraction in the supernatant and the pellet, respectively. […]

Another test concerns the target T1, 6xhis-tagged SNAP25A (UniProt P60881-2 1-206).
T1 construct: also called 6xhisSNAP25; 6xhis-SNAP25; not shown: 6xhis tag
In words: overlay assay. The method, then: The binding of GST, GST-Cyt-TIVAMP, GST-ter-TIVAMP, or GST-CC-TIVAMP was measured by overlay over immobilized 6xhis-SNAP25 (indicated by the arrow). GST-CC-TIVAMP bound efficiently to immobilized 6xhis-SNAP25. Little binding of GST-Cyt-TIVAMP and none of GST and GST-Nter-TIVAMP were observed.
Overlay assay: The corresponding GST fusion proteins and GST alone were produced and purified as previously described, 6xhis-tagged SNAP25A (6xhisSNAP25, bacterial strain is available from G. Schiavo, ICRF, London, UK) was purified. 6xhisSNAP25 was run on SDS-PAGE and western blotted onto Immobilon-P membrane (Millipore, Bedford, Mass.). The amount of 6xhisSNAP25 corresponds to 1.25 μg/mm of membrane, 4 mm strips of the membrane were cut and incubated in 150 mM NaCl, 5% non fat dry milk. 50 mM phosphate pH7.5 buffer for 1 hour at room temperature. The strips were then incubated with 10 nM the GST-fusion proteins overnight at 4° C. in buffer B (3% BSA, 0.1%, Tween20 20 mM Tris pH: 7.5) containing 1 mM DTT. The strips were rinsed three times in buffer B at room temperature, incubated with anti-GST antibodies in butfer B for 1 hour, rinsed in buffer B three times and incubated with alkaline phosphatase-coupled sheep anti-mouse antibodies. The detection as carried out simultaneously for all the strips, for the same time, using a kit from Promega (Madison, Wis.).

Chain of endogenous SNAP25 (rat brain extract; PC12 cells) (P60881 whole entry): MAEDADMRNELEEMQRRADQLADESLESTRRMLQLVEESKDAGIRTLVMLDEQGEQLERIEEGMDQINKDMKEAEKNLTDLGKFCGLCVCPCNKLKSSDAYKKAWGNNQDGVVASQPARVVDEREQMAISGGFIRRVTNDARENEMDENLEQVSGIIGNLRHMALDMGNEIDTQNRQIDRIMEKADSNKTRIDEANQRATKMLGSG
T1 sequence (P60881 other isoform, or with tags, fused parts or gaps limits assumed): as the sequence (P60881 whole entry) above, with E58D, I60V, D65N, Q66H, K69Q, T79K, F84C, C88F, V89I counted along it

B1: endogenous cellubrevin (rat brain) (other, UniProt P63025 1-103, looked up)
chain: MSTGVPSGSSAATGSNRRLQQTQNQVDEVVDIMRVNVDKVLERDQKLSELDDRADALQAGASQFETSAAKLKRKYWWKNCKMWAIGISVLVIIVIIIIVWCVS
notes: also called Cb
Regarding B1, the binding result in test [1] is “no binding”.

B2: GST-Cyt-TIVAMP (other)
chain: MAILFAVVARGTTILAKHAWCGGNFLEVTEQILAKIPSENNKLTYSHGNYLFHYICQDRIVYLCITDDDFERSRAFNFLNEIKKRFQTTYGSRAQTALPYAMNSEFSSVLAAQLKHHSENKGLDKVMETQAQVDELKGIMVRNIDLVAQRGERLELLIDKTENLVDSSVTFKTTSRNLARAMCMKNLK
notes: also called full cytoplasmic domain of TI-VAMP fused to GST; not shown: glutathione S-transferase (GST) tag encoded by the pGEX4T vector (Pharmacia)
As for B2, the binding result with 6xhis-tagged SNAP25A is listed as “binds”.
